This assay has as its target aortic smooth muscle actin (alpha-smooth muscle actin) (bovine) (UniProt P62739). The assay is described as follows: co-sedimentation.

Values joined by “and” are separate entries in the source; they are usually repeats but may differ in a detail not shown here. Identical values can stand only once. Where only a bound is given, the exact number is not on record here.

Take “aortic smooth muscle actin (alpha-smooth muscle actin) (from UniProt P62739 3-377) (natural protein)”: the percent of actin in the pellet (actin alone) is 10% and 20%; the percent of actin in the pellet (with anti-aSM-1 at 1:16 antibody/actin) was > 60%.
